Laboratory results from the nanobody polyreactivity screen of Harvey et al. (2022).

Experiment: yeast display, Sf9 membrane polyspecificity reagent, FACS + sequencing; frameworks hold sequencing errors
Outline: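 In a synthetic yeast display library (Saccharomyces cerevisiae BJ5465), nanobody expression was induced with galactose for 36–48 hours. FACS gates were set low and high (top ~1%) using anti-HA fluorescence for expression and streptavidin fluorescence for binding of the Sf9 membrane reagent. Each polyreactivity label is drawn from the gate of origin.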

Row | Sequence | polyreactivity (PSR sort gate)
1 | QVQLVESGGGLVQAGGSLRISCAASGSIFYENTMGWYRQAPGKEREFVAAISRSGGSTYYADSVKGRFTISRDNAKNTVYLQMNSLKPEDTAVYYCAARSRPGYAVYYWGQGTQVTVSS | high polyreactivity
2 | QVQLVESGGGLVQAGGSLRISCAASGSIFYGYAMGWYRQAPGKERELVAAITWSGGSTYYADSVKGRFTISRDNAKNTVYLQMNSLNPEDTAVYFCNAVSTRFRVRTSDYWGQGTQVTVSS | high polyreactivity
3 | QVQLVESGGGLVQAGGSLRISCAASGSNQDSYTMGWYRQAPGKERELVATISTSGGSTYYADSVKGRFTISRDNAKHTVYLQLNSLKPEDTAVYYCNADDPFGPHRYNSWGQGTQVTVSS | low polyreactivity
4 | QVQLVESGGGLVQAGGSLRISCAASGSTFDANAMGRYRQAPGKEREMVAANSYSGGTTYYADSVKGRFTISRDNAKNTVYLQMNSLKQEDTAVYYCATRKAFTAGSYNVYYGEYYWGQGTQVTVSS | low polyreactivity
5 | QVQLVESGGGLVQAGGSLRISCAASGSTFDENAMGWYRQAPGKERELVAVISDSGGSTYYADSVKGRFTISRDNAKNTVYLQMNSLKPEDTAVYYCAKDVPPVYPTSSYDYWGQGTQVTVSS | low polyreactivity
6 | QVQLVESGGGLVQAGGSLRISCAASGSTFDFYTMGWYRQAHGKEREMVASISWSGRTYYADSVKGRFTISRDNAKNTVYLQMTSLKPEDTAVYYCARRYVVNRDWGDDYWGQGTQVTVSS | high polyreactivity
7 | QVQLVESGGGLVQAGGSLRISCAASGSTFDPNAMGWYRQAPGKERELVAVIDSGDGTTYYADSVKGRFTISRDIAKNTVSFQMISQKREDTAVYYCAVDESTSYYDDHEDYWGQRTQVTVSS | low polyreactivity
8 | QVQLVESGGGLVQAGGSLRISCAASGSTFGSYVMGWYRQAPGKERELVAAICGSGGSTYYADSVKGRFTISRDNAKHTVYLQMNSLKPEDTAVYYCAAYVYFPWYGYWGQATQVTVSS | high polyreactivity
9 | QVQLVESGGGLVQAGGSLRISCAASGSTFGVNARGWYRQAPGKERELVAGITWTGGSTYYADSVKGRFTISRDNAKNTVYVQMNSLKPEDTAVYFCAKAWYSSYYDDSEDSWGQGTQVTVSS | low polyreactivity
10 | QVQLVESGGGLVQAGGSLRISCAASGSTFLTNTLGWYRQAPGKERELVAAITLRGGRTYYADSVKGRFTISRDNAKNTVYLQMNSLKPEDTAVYYCNARNYYYPSDRDYWGQGTQVTVSS | low polyreactivity
11 | QVQLVESGGGLVQAGGSLRISCAASGSTFSRNAMGWYRQAPGKERELVAAISRRGDTTYYADSVKGRFTISRDNAKNTVYLQRNSLKPEDTGVYYCAASRYGYPKYGYWGQGTQVTVSS | high polyreactivity
12 | QVQLVESGGGLVQAGGSLRISCAASGSTFSRNVMGWYRQAPGKERELVAAISRGGSTNYADSVKGRFTISRDNAKKTVYLQMNSLKTEVTAVYYCNAPRLGKFYYWGQGTQVTVSS | low polyreactivity
13 | QVQLVESGGGLVQAGGSLRISCAASGSTFSTYAMGSYRTEPGKERELVASISNGGSTNYEDSVKGRFTISRDNAKNTVYLQMNSLKPEDTAVYYFNAESKAKYDYFGQGTQVTVSS | low polyreactivity
14 | QVQLVESGGGLVQAGGSLRISCAASGSTFSYYTMGWYRQAPGKERELVAAISRTGGSTYYADSVKGRFTISRDNAKNTVYLQMNSLKPEDTAVYYCAADWTRGSPGMDYWVQGTQVTVSS | high polyreactivity
15 | QVQLVESGGGLVQAGGSLRISCAASGSTFYIYSMGWYRQAPGKERELVARISGSGGSTYYADSVKVRFTISRDYAKNTVYLQMNSLKPEDTAVYYCAADDIYKYYLYYAFPYYRYDYWGLGTQVTVSS | low polyreactivity
16 | QVQLVESGGGLVQAGGSLRISCAASGSTINRYAMGWYRQAPWKERELVAAINWRGSRTYYADSVKGRFTISRDNAKNTVYLQMNSLKPEDTAVYDCAASLGANGFQGRMYYWGQGTQVTVSS | low polyreactivity
17 | QVQLVESGGGLVQAGGSLRISCAASGYTFGNYAMGWYRQAPGKERELVAAISWRGARTNYADSVKGRFTISRDNAKNTVYLQMNSLKPEDTAVYYCAAGYYYGYPPRDYWGQGTQVTVSS | high polyreactivity
18 | QVQLVESGGGLVQAGGSLRISCAASGYTSIIYAMGWYRQAPGTERECVASIRGRSGSTYYADSVKGRFTISRDNAKNTVYLQMNSLKPEDTAVYYCAARARYVNWQGFDYWGQGTQVTVSS | high polyreactivity
19 | QVQLVESGGGLVQAGGSLRISCAAYGRIFGYYALGWYRQAPGKERELVAAITSGGSTNYADSVKGRFTISRDNAKNTVYLQMNSLKPEDTAVYYCAARSWYFSWEMYYWGQGTQVTVSS | high polyreactivity
20 | QVQLVESGGGLVQAGGSLRISCAPSGFIYSYAMGWYRQAPGKERELVASITLNGGSTYYADSVKGRFTISRDNAKNTVYLQMNSLKPEDTAVYYCNADRASLSIGGYYRLWYDYWGQGTQVTVSS | high polyreactivity
21 | QVQLVESGGGLVQAGGSLRISCAPSGFTFGHYAMGWYRQAPGKERELVAAISYSGVRTYYADSVKGRFTISRDNAKNTVYLQMNSLKPEDTAVYYCNKYPAHYQTRRYDYWGQGTQVTVSS | high polyreactivity
22 | QVQLVESGGGLVQAGGSLRISCAPSGSIFESNAMGWYRQAPGKERELVADITYRGTRTYYADSVKGRFTISRDNAKNTVYLQMNSLKPEDTAVYYCAVWQDHYDWGQGTQVTVSS | low polyreactivity

Row | Sequence | polyreactivity (PSR sort gate)
23 | QVQLVESGGGLVQAGGSLRISCAPSGSNINAYAIGWYRQSTGKERELVARITRGDGTTYYADSVKGRFTISRDNAMNTVYLQMNRLKPEDNAVYYCNRVEYYSVWGYDYWVQGTQVTVSS | low polyreactivity
24 | QVQLVESGGGLVQAGGSLRISCAPSGSTFYKYTMGWYRQAPGKERELVAAISGSGTTTYYADSVKGRFTISRDNAKNTVYLRMNSLKPEDTAVYYCNTARGYDYGGLDYWGQGSQVTVSS | high polyreactivity
25 | QVQLVESGGGLVQAGGSLRISCASSGRIFKINAMGWYRQAPGKERELVATITRDGRTYYADSVKGRFTISRDNAKKTVYLQMNSLKPDDTAVYYCNVRRAFSGWRGYDYWGQGTQVTVSS | high polyreactivity
26 | QVQLVESGGGLVQAGGSLRISCASSGSIFVINAMGWYRQAPGKERELVAAIDWGGDTTYYADSVKGRFTISRDNAKITVYLQMNSLKPEDTAVYYCAADLFLWYEFEYWGQGTQVTVSS | high polyreactivity
27 | QVQLVESGGGLVQAGGSLRISFAASGRTFFGYAMGWYRQAPGKERELVATIDGSDGSTFYADSVKGRFTISRDNAKNTVYLQMNSLKPEDTAVYYCAAENFWQSKEYDYWGQGTQVTVSS | low polyreactivity
28 | QVQLVESGGGLVQAGGSLRISFAASGYIFYNYARRSYRQAPGKERELLAAMTRGGSTNYADSVKGRFTISRDNAQNTVYLQMNSLKPEDTAGYYCAAEEGPPWSRYDSWGQGTQVTVSS | low polyreactivity
29 | QVQLVESGGGLVQAGGSLRISSAASGFTFTPNAKGWYRQAPGKERELVAVITWNGGTTYYADSVKGRFTISRDNAQNTVYLQMNSLKPEDTAVYYCNADGLILYDYWGHGTQVTVSS | low polyreactivity
30 | QVQLVESGGGLVQAGGSLRISSAASGSTFFRYDLGWYRPAPGKEWELVAAITASGTRTYYADSVKGRFTISRDNAKNTVYLQMNSLKPEDTAVYYCAADSRRYGYDYWGQGYQVTVSS | high polyreactivity
31 | QVQLVESGGGLVQAGGSLRISSAPSGITYYGNVMGWYRQAPGKERELVADISWSGGRTYYADSVKGRFTISRDNAKNTVYLQITSLKPEVTALYDCAAEGTTNRGVYASYDYWGQGTQVTVSS | low polyreactivity
32 | QVQLVESGGGLVQAGGSLRITCAASASIYYRYAMGWNRQAPGKERELVAAITYSGGSTYYADSVKGRFTISRDNAKNPVYLQMNSLKPEDTAVYYCAKDYPPPISDYSRYYGYGYWGQGTQVTVSS | low polyreactivity
33 | QVQLVESGGGLVQAGGSLRITCAASGLTFPPNAMGWYRQAPGKERELVAAITRSGGSTYYADSVKGRFTISRDNAKNTFYLQMNSLKPEDTAVYYCAVYLPYSQRYVHYYYWGQGPQVTVSS | high polyreactivity
34 | QVQLVESGGGLVQAGGSLRKSCAASGSIFADKAMGWYRQAPGKERELVATISAPDGSTYYADYVKGRFTISGDNAKNTVYLQMNSLKPEDTAVYYCAASGYYILSWRYDYWGQGTQVTVSS | low polyreactivity
35 | QVQLVESGGGLVQAGGSLRLAVLPPDLPSTLNDMGWYRQAPGKERELVAAITRGGSTNYADSVKGRFTLSRDNAKNTVYLQMNSLKPEDTAVYYCAAPYAGWRDGGDYWGQGTQVTVSS | low polyreactivity
36 | QVQLVESGGGLVQAGGSLRLCCAASGFILLDYAKGWYRQAPGNERELVAAISWSGARTYYADSVKRRFTISRDNAKNTVYLQMNSLKPEDTAVYYCATRYRWTPYDYWGQGTQVTVSS | low polyreactivity
37 | QVQLVESGGGLVQAGGSLRLCCAASGIIFDGYAMGWYRQAPGKERELVAGITIGDITYYADSVKGRFTISRDNAKNTVYLQMTSLKPEDTAVYYCAADSYYYQTAYDYWGQGTQVTVSS | low polyreactivity
38 | QVQLVESGGGLVQAGGSLRLCCAASGNIFAYYAMGWYRQPPAKERELVAGISRRGGNTYYADSVKGRFTISRDNAKNTVYLQMNSLKPEDTAVYYCAAITYSGQRFDYWGQGTQVTVSS | high polyreactivity
39 | QVQLVESGGGLVQAGGSLRLCCAASGSIFKYNAMGWYRQAPGKERELVAAITWSGGSTYYADSVKGRFTISRDNAKNTVYLQMNSLKPEDTAVYYCAAVYYYASRTSKQPYYHWGQGTQVSVSS | high polyreactivity
40 | QVQLVESGGGLVQAGGSLRLCCAASGSNFRRNAMGLYRQAPGKERELVAAMSWTSTRTYYADSVKVRFTISRDNAKNTVYLQMNSLKPEDTAVYYCAADSNGGGFQLYSYDSGLYYWGQGTQVTVSS | high polyreactivity
41 | QVQLVESGGGLVQAGGSLRLCCASSGSTFTYNTMGWYRQAPGKERELVAAISFSSGRTYYADSVKVRFTISRYNAINTVYLHINSLKPEDTAVYYCNARTWETLRGYDYWGQGTQVTVSS | high polyreactivity
42 | QVQLVESGGGLVQAGGSLRLICAASGFIFFGNALGWYRQAPGKERELVAVITWSGGSTYADSVKGRFTISRDNAKNTVYLLMNSLKPEDTAVYYCAFVTPYWSFYEQVIPSNYWGQGTQVTVSS | low polyreactivity
43 | QVQLVESGGGLVQAGGSLRLICAASGFIFFINDMGWYRQAPGKERELVAAISWSCGSTYYADSVKGRFTISRDNAKNTVYLQMNSLKPEDTAVYYCNTDVPTAQYDYWGQGTQVTVSS | low polyreactivity
